According to US20220228157A1, “GENE EDITING IN DIVERSE BACTERIA” (priority 2019, published 2022):
Where a chain is given by its changes, count along the chain named. In names and notes the source's numbering stands.

B1: SR033: SSAP candidate (protein)
chain: MADYEEQMLALQKPLQPDRVVWRVQQSGFSKQGKPWAMVLAYMDNRAVQERFDEVFGIAGWKNEFKTAPDGGTLCGISVKFGDEWVTKWDGAENTQVEAVKGGLSGSMKRAAVQWGVGRYLYDLPTSFAQTSLEKTDGWNKVFDKNSKKNFWWKNPQLPSWALPQNSKVQNTKADFTEEEIPNPPKLYVVGKDKKEFDEKKLQAVVNKMAIIAGKDYGASVDEQNDWLKMPLDEAYNDIEKFVDIKKEEQND
modifications: Lactococcus phage bIL286,Lactococcus lactis subsp lactis (strain IL1403) (Streptococcuslactis)
notes: SSAP candidate
B2: PF003: SSAP candidate (protein)
chain: MAENEKQALLQEENKSENVVSTVKRTALATNPFSDTDQFNNIFKMAQLISQSDMIPATYKGKPMNCVIALEQANRMGVSPLMVMQNLYVVKGVPSWSGQGCMMIIQGCGKFRDVDYVYSGEKGTDSRSCKVVATRISDGKRIEGTEITMQMVKSEGWISNTKWKNMPEQMLGYRAATFFARMYCPNELNGFATEGEAEDMNHKPQRIEAINVLGDTAHE
modifications: Clostridium sp FS41
notes: SSAP candidate
B3: LlMutL.E33K: L. lactis MutL carrying the equivalent dominant negative mutation, SEQ ID NO: 513 (protein)
chain: MGKIIELNEALANQIAAGEVVERPASVVKELVKNSIDAGSSKIIINVEEAGLRLIEVIDNGLGLEKEDVALALRRHATSKIKDSADLFRIRTLGFRGEALPSIASVSQMTIETSNAQEEAGTKLIAKGGTIETLEPLAKRLGTKISVANLFYNTPARLKYIKSLQAELSHITDIINRLSLAHPEISFTLVNEGKEFLKTAGNGDLRQVIAAIYGIGTAKKMREINGSDLDFELTGYVSLPELTRANRNYITILINGRFIKNFLLNRAILEGYGNRLMVGRFPFAVLSIKIDPKLADVNVHPTKQEVRLSKERELMTLISKAIDETLSEGVLIPEALENLQGRAKEKGTVSVQTELPLQNNPLYYDNVRQDFFVREEAIFEINKNDNSDSLTEQNSTDYTVNQPETGSVSEKITDRTVESSNEFTDRTPKNSVSNFGVDFDNIEKLSQQSTFPQLEYLAQLHATYLLCQSKEGLYLVDQHAAQERIKYEYWKDKIGEVSMEQQILLAPYLFTLPKNDFIVLAEKKDLLHEAGVFLEEYGENQFILREHPIWLKETEIEKSINEMIDIILSSKEFSLKKYRHDLAAMVACKSSIKANHPLDAESARALLRELSTCKNPYSCAHGRPTIVHFSGDDIQKMFRRIQETHRSKAASWKDFE
B4: SR081: SSAP candidate (protein)
chain: MSKEFYARLAAIQENLNAPKNQYNSFGKYKYRSCEDILEGVKPLLNGLFLSISDEVVLIGDRYYVKATATITDGENSHTATALAREEESKKGMDSAQVTGATSSYARKYCLNGLFGIDDAKDADTDEHKHQQNAAAKQSNPSPTPEQVLKAFTDAAMQKNTVEELKQAFAKAWKMLEGTPEQHKAQDVYNIRRDELEGAAA
modifications: Bacteriophage HK022
notes: SSAP candidate
B5: SR041: SSAP candidate (protein)
chain: MAKIKLTNVRIAFINNLRTPAEFEAGDGKFRYSATFLVEKGSANDKAIEAAIKSVAVEGWAKKADAMLESFRSNSNKFCYQNGDLKDFDGFEGNMYIAAHRKRDDGRPLLLDNVADPETGKPARLVDANGEWLAGKEGRIYAGCYVNATIDIYAQTKTNPGIRCGLMGVQYHGPGDSFSGASRANEDDFEATAPETEDELD
modifications: Burkholderia phage BcepC6B
notes: SSAP candidate
B6: MutL.E32K from E. coli: dominant negative mismatch repair protein, SEQ ID NO: 515 (protein)
chain: MPIQVLPPQLANQIAAGEVVERPASVVKELVKNSLDAGATRIDIDIERGGAKLIRIRDNGCGIKKDELALALARHATSKIASLDDLEAIISLGFRGEALASISSVSRLTLTSRTAEQQEAWQAYAEGRDMNVTVKPAAHPVGTTLEVLDLFYNTPARRKFLRTEKTEFNHIDEIIRRIALARFDVTINLSHNGKIVRQYRAVPEGGQKERRLGAICGTAFLEQALAIEWQHGDLTLRGWVADPNHTTPALAEIQYCYVNGRMMRDRLINHAIRQACEDKLGADQQPAFVLYLEIDPHQVDVNVHPAKHEVRFHQSRLVHDFIYQGVLSVLQQQLETPLPLDDEPQPAPRSIPENRVAAGRNHFAEPAAREPVAPRYTPAPASGSRPAAPWPNAQPGYQKQQGEVYRQLLQTPAPMQKLKAPEPQEPALAANSQSFGRVLTIVHSDCALLERDGNISLLSLPVAERWLRQAQLTPGEAPVCAQPLLIPLRLKVSAEEKSALEKAQSALAELGIDFQSDAQHVTIRAVPLPLRQQNLQILIPELIGYLAKQSVFEPGNIAQWIARNLMSEHAQWSMAQAITLLADVERLCPQLVKTPPGGLLQSVDLHPAIKALKDE
B7: L1SSB C7:EcSSB (protein)
chain: MINNVVLVGRITRDPELRYTPQNQAVATFSLAVNRQFKNANGEREADFINCVIWRQQAENLANWAKKGALIGVTGRIQTRNYENQQGQRVYVTEVVADSFQMLESRSARDGMGGGASAGSYSAPSQSTNNTPRPQTNNNSATPNFGRDADPFGSSPMEIMEIFDDDIPF
B8: L1SSB C7:PaSSB (protein)
chain: B7 chain
B9: L1SSB C7:MsSSB (protein)
chain: B7 chain with F163A, D166E, I167P
B10: SR024: SSAP candidate (protein)
chain: MAIDNQSTKVITGKVRLSYTHVFEPQENDSGDMKYSTAILIPKSDKETLRKIKAAVDAAKELGKSKWGGKIPANCKTPLRDGDEERPDDEAYAGHYFLNASSKNKPGVAKPIGKDGNGKTKFQEITDSTEVYSGCYAKVSLNFYPFDAKGNRGVAAGLNNIVKVQDGDFLGGRSSVNDDFANEDFDDIVDISDDDDFLN
modifications: Paenibacillus lactis 154
notes: SSAP candidate
B11: L1SSB C8:EcSSB (protein)
chain: MINNVVLVGRITRDPELRYTPQNQAVATFSLAVNRQFKNANGEREADFINCVIWRQQAENLANWAKKGALIGVTGRIQTRNYENQQGQRVYVTEVVADSFQMLESRSARDGMGGGASAGSYSAPSQSTNNTPRPQTNNNSATPNFGRDADPFGSSPMEMEDFDDDIPF
B12: L1SSB C8:MsSSB (protein)
chain: B11 chain with D161G, F162A, D165E, I166P
B13: L1SSB C8:PaSSB (protein)
chain: B11 chain with D161S

Legend:
Staphylococcus aureus = assay: SSAP candidate enrichment; assay type: cell-based
Protocol: The editing efficiency of SSAP candidates was also tested in Agrobacterium tumefaciens and in Staphylococcus aureus using the methods described above.

L. lactis = assay: Allelic recombination frequency, selective vs non-selective plates; assay type: cell-based, Lactococcus lactis; details: for Function of dominant negative MutL: co-expressed with PapRecT and PaSSB; for Genome editing efficiency lower than Redβ with EcSSB: co-expressed with Redβ; for Editing efficiency with chimeric SSB: co-expressed with the RecT
Protocol: Four variants known to enable high genome editing efficiency were selected (Redβ and PapRecT in E. coli, LrpRecT in L. lactis, and MspRecT in M. smegmatis), and tested codon optimized versions of all four in both E. coli (gram-negative), and L. lactis (gram-positive). Genome editing efficiency was measured by introducing oligos encoding known antibiotic resistance mutations, and compared the antibiotic resistant cell counts to the total number of viable cells in the population (FIGS. 17E-17F). […] In L. lactis, LrpRecT was the only functional homolog, and improved oligo incorporation 7,700-fold, while the three other RecT variants were nearly non-functional, improving oligo incorporation less than 7-fold (FIG. 17H). No RecT protein functioned well both in E. coli and L. lactis.
A single colony of L. lactis was grown overnight to saturation. 500 μL of dense culture was inoculated into 5 mL of fresh media, supplemented with 500 mM sucrose and 2.5% (w/v) glycine, and grown for 3 hours. To induce gene expression of the pJP005 vector for recombineering experiments, the cells were grown for an additional 30 min after adding 1 ng/mL freshly diluted nisin, unless stated otherwise. For the optimized condition (FIG. 20B), 10 ng/mL nisin was used. Cells were pelleted at 4° C. by centrifugation at 5,000×g for 5 minutes and washed twice with 2 mL of ice-cold electroporation buffer (500 mM sucrose containing 10% (w/v) glycerol) by centrifugation at 13,200×g for 2.5 minutes. Cells were resuspended in 80 μL ice-cold electroporation buffer containing DNA and transferred to a pre-chilled 0.1 cm electroporation cuvette.
Electrocompetent cells were electroporated with 90-mer oligos at: 1 uM for E. coli, 50 μg for L. lactis, and 10 uM for C. crescentus. 70-mer oligos were used at 1 μg for M. smegmatis. All oligos were obtained from IDT and can be found under “Oligonucleotides for genome editing” in materials and methods. For dsDNA experiments L. lactis was electroporated with 1.5 μg purified linear dsDNA. Cells were electroporated using a Bio-Rad gene pulser set to 25 μF, 200 S2, and 1.8 kV for E. coli, 2.0 kV for L. lactis, and 1.5 kV for C. crescentus and to 1000Ω and 2.5 kV for M. smegmatis. Immediately after electroporation, cells were recovered in fresh media for 3 hours for E. coli, 1 hour for L. lactis, overnight for M. smegmatis and overnight for C. crescentus. L. lactis recovery media was supplemented with MgCl2 and CaCl2) at a concentration of 20 mM and 2 mM, respectively. E. coli recovery media was supplemented with carbenicillin. M. smegmatis recovery media was supplemented with hygromycin. C. crescentus recovery media was supplemented with 0.3% xylose and kanamycin. After recovery, the cells were serial diluted and plated on non-selective vs. selective agar plates to obtain approximately 50-500 CFU/plate. Colonies were counted using a custom script in Fiji, and allelic recombination frequency was calculated by dividing the number of colonies on selective plates, with the number of colonies on non-selective plates.

| Molecule | Editing efficiency (enrichment) relative to other SSAP candidates (Staphylococcus aureus) | Editing efficiency with chimeric SSB (L. lactis) | other results |
| --- | --- | --- | --- |
| B1 | increase in editing efficiency | – | – |
| B2 | increase in editing efficiency | – | – |
| B3 | – | – | Function of dominant negative MutL (L. lactis): enabled the efficient introduction of 1 bp pair changes |
| B4 | increase in editing efficiency | – | – |
| B5 | increase in editing efficiency | – | – |
| B6 | – | – | Function of dominant negative MutL (L. lactis): nonfunctional |
| B7 | – | – | Genome editing efficiency lower than Redβ with EcSSB (L. lactis): ≤ 5.9 fold |
| B8 | – | completely recovered | – |
| B9 | – | completely recovered | – |
| B10 | increase in editing efficiency | – | – |
| B11 | – | – | Genome editing efficiency lower than Redβ with EcSSB (L. lactis): ≤ 2.6 fold |
| B12 | – | completely recovered | – |
| B13 | – | completely recovered | – |
